For 1 molecule, Kd results are on record in publication doi:10.1101/2025.10.03.680225.

What is called Kd is the concentration at which binding is half-saturated.

One data set deals with GAPDH-wt (UniProt P04406 1-335). Description: fluorescence anisotropy.
A further data set has as its target GAPDH-K215E (UniProt P04406 1-335, K215E). The data set is described as follows: fluorescence anisotropy.

GAPDH-wt, sequence (P04406 whole entry): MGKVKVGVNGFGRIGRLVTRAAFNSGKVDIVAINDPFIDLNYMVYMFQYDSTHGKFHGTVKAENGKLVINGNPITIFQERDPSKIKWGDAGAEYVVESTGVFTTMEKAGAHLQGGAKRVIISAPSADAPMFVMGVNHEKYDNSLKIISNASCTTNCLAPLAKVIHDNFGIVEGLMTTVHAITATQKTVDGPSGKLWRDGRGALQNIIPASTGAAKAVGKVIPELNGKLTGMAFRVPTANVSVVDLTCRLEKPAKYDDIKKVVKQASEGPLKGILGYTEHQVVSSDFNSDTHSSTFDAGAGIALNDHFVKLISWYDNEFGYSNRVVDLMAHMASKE
GAPDH-K215E, sequence (P04406 whole entry K215E): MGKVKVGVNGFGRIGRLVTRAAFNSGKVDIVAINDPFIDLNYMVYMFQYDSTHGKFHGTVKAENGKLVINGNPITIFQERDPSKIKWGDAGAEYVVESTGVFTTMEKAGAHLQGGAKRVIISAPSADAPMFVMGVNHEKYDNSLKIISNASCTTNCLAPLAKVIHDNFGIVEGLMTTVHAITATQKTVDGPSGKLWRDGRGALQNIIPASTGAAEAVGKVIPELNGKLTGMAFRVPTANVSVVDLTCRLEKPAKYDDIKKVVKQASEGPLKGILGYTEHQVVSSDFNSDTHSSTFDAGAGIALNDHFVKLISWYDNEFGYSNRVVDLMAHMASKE

As for AAAAAAAAAAAAAAAAAAAA (ssRNA) [20A-RNA], the figures for the Kd with GAPDH-wt and in the data set with GAPDH-K215E were 132 ± 10 nM and 3100 ± 217 nM, respectively.
